From US20140296146A1, “Thermostable Inhibitors of Activation of the Blood Clotting System Through Contact with Foreign Surfaces” (Synapse B.V., priority 2011, published 2014)

T1: h-FXIIa (Homo sapiens, UniProt P00748)
T1 construct: purchased Enzyme Research Laboratories FXIIa 1212A
T1 sequence (P00748 373-615 limits assumed): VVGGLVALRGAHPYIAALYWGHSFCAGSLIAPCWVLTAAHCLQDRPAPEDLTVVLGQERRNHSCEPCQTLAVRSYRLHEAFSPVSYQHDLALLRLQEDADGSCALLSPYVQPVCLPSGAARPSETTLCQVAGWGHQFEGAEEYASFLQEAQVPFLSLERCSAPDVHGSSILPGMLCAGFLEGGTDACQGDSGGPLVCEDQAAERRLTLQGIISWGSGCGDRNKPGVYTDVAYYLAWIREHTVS
T1 sequence (P00748 20-372 partner limits assumed): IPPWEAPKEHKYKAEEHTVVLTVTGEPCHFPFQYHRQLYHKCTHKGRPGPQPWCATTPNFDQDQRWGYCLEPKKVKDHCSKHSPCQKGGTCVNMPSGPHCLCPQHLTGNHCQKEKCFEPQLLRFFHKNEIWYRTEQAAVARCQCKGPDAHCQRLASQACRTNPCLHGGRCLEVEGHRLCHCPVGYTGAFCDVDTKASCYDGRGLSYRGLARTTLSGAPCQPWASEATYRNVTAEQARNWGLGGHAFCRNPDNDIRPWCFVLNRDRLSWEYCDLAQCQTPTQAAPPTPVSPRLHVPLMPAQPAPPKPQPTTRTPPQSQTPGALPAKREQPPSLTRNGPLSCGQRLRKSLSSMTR

T2: h-FXIIa (human, UniProt P00748 20-615)
T2 construct: also called factor XIIa
T2 sequence (looked up): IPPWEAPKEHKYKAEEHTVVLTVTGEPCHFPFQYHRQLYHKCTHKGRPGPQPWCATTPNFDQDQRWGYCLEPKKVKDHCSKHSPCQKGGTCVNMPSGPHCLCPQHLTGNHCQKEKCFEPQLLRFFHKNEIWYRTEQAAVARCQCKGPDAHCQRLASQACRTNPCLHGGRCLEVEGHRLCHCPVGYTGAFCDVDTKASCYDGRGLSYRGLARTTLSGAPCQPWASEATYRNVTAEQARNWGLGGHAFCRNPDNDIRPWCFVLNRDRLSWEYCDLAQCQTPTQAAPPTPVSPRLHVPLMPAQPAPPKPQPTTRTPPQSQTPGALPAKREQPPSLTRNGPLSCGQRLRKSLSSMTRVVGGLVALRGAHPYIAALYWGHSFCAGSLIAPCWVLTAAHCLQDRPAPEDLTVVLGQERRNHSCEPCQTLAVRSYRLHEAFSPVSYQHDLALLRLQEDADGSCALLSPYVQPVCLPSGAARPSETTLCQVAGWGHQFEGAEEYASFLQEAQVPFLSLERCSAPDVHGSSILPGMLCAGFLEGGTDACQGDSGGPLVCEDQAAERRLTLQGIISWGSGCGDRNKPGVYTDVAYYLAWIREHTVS


Legend:
[1] = target: T1, h-FXIIa; assay: Effect of inhibitors on hydrolysis of S2302 by h-FXIIa; format: biochemical
Experimental: Materials • S2302 From Chromogenic, lot # N0398718 SEQ0860, exp. date 2012-07. Water added on 7 Oct. […] On 3 Aug. […] Product code FXIIa 1212A, lot #FXIIa 2520PL. Bottle with 0.5 mg was reconstituted with 370 μl pure water. […] Buffer 4 mM NaAc, 150 mM NaCl (pH 5.3). Preparation was divided into 20 μl amounts and frozen at −80° C. • Hepes735 140 mM NaCl, 20 mM Hepes, 0.02% NaN3 (pH 7.35). • BSA5 Hepes735+5 mg/ml BSA. • CTI Prepared on 17 Dec. 2004, 0.141 mg/ml, i.e. 0.141/12028=11.7*10^−6 M (11.7 μM). One portion was thawed and divided into 3 parts. Part 1 was frozen at −80° C.; part 2 was kept at RT; and part 3 was incubated 30 min at 95° C. and then kept at RT.
(§1) Stock FXIIa was diluted 700× in BSA5. The inhibitor was diluted in BSA5 as indicated. Wells contained 70 μl diluted FXIIa (5 nM final), 70 μl inhibitor and 20 μl S2302 (475 or 462.5 μM final). The reaction was started after 5 min heating on the heating plate with S2302. Filters 405 nm and 490 nm reference. Found mΔA/min was multiplied by 2.14 to get the figure for a 1 cm path.
The residual activity (V) was fitted against the PTI concentration with equation:
V=(E+(sqrt(Ê2+2*E*(Ki−I)+Î2+2*I*Ki+Kî2)−E−I−Ki)/2)*kcat*S/(Km+S)
(§2) in which E=[FXIIa], Ki is the dissociation constant, I=[Inhibitor], kcat and Km are Michaelis constants and S=[S2302].

[2] = tested on: contact activation; assay: Clotting time of blood taken on inhibitor only, without Ca2+ binding substance; conditions: tube heated for one hour in boiling water; 10 μg/ml
Experimental: Indeed STI inhibited contact activation so well that blood taken on a solution not containing sodium citrate or another substance that binds Ca^2+ ions but only STI (10 μg/ml) remained fluid for over 45 minutes, under conditions where in absence of STI it would clot in less than 5 min. […] CTI under similar circumstances, at 10 μg/ml, lost much of its activity because a clotting time of <15 min. was observed.

[3] = target: T2, h-FXIIa; assay: S2302 hydrolysis by h-FXIIa, fit of residual activity
Experimental: as §1, §2

[4] = target: T2, h-FXIIa; assay: S2302 hydrolysis by h-FXIIa (5.01 nM); inhibitor kept at -80° C.
Experimental: as §1, with “ΔmA/min” for “mΔA/min”

[5] = target: T2, h-FXIIa; assay: S2302 hydrolysis by h-FXIIa (5.01 nM); inhibitor kept at -80° C. (reference)
Experimental: as §1, with “ΔmA/min” for “mΔA/min”

[6] = target: T2, h-FXIIa; assay: S2302 hydrolysis by h-FXIIa (5.01 nM); inhibitor 30 min 95° C., against -80° C.
Experimental: as §1, with “ΔmA/min” for “mΔA/min”

[7] = target: T2, h-FXIIa; assay: S2302 hydrolysis by h-FXIIa (5 nM), fit of residual activity; dissociation constant of the complex
Experimental: as §1, §2

[8] = target: T2, h-FXIIa; assay: S2302 hydrolysis by h-FXIIa (5.01 nM); inhibitor at RT during 72 hrs
Experimental: as §1, with “ΔmA/min” for “mΔA/min”

clotting time of blood after sterilization of the tube containing inhibitor [2] [min]	Ki [3] [nM]	Ki [4] [nM]	Res. Act. (%) [5] [%]	Res. Act. (%) [6] [%]	Ki [7] [nM]	Ki [8] [nM]	Molecule	Ki ([1]; Ki, Table 2, inhibitory activity of different polypeptides) [nM]	Ki ([1]; ki F.XIIa (ng/ml), After heating) [nM]	Ki ([1]; ki F.XIIa (ng/ml), Before heating) [nM]
–	–	–	–	–	–	–	CC[C@H](C)[C@@H]1NC(=O)[C@H](CCCNC(=N)N)NC(=O)[C@@H]2CCCN2C(=O)[C@@H](NC(=O)[C@@H](NC(=O)[C@@H](N)CCCNC(=N)N)C(C)C)CSSC[C@@H]2NC(=O)[C@H](CCC(=O)O)NC(=O)[C@H](C)NC(=O)[C@H](CC(C)C)NC(=O)[C@@H]3CSSC[C@@H](C(=O)NCC(=O)O)NC(=O)[C@H](Cc4ccc(O)cc4)NC(=O)CNC(=O)[C@H](Cc4c[nH]cn4)NC(=O)[C@H](CCC(=O)O)NC(=O)[C@H](CC(C)C)NC(=O)[C@H](CSSC[C@H](NC(=O)[C@H](CCCCN)NC(=O)[C@H](CCSC)NC(=O)[C@H](CC(C)C)NC1=O)C(=O)N[C@@H](CCCCN)C(=O)N[C@@H](CCCCN)C(=O)N[C@@H](CC(=O)O)C(=O)N[C@@H](CO)C(=O)N[C@@H](CC(=O)O)C(=O)N3)NC(=O)[C@H](C(C)C)NC2=O [TICA1]	25.5	26	25.4
< 15	2.9	3.59	100	70	2.9	4.19	Corn trypsin inhibitor (other, UniProt P01088 29-138, looked up, also called CTI) SAGTSCVPGWAIPHNPLPSCRWYVTSRTCGIGPRLPWPELKRRCCRELADIPAYCRCTALSILMDGAIPPGPDAQLEGRLEDLPGCPREVQRGFAATLVTEAECNLATIS	–	–	–
